Values of other authors, collected in US11866502B2, “Anti-FGFR2 antibodies and methods of use thereof” (Regeneron Pharmaceuticals, Inc., priority 2020, dated 2024).

Test system: xenograft models
Conditions: several xenograft models; cited from earlier work

B1: Aprutumab-TTC: anti-FGFR2 antibody, a chelator moiety covalently conjugated to the antibody, and the alpha particle-emitting radionuclide thorium-227 (conjugate, chains of the INN, looked up)
VH: EVQLLESGGGLVQPGGSLRLSCAASGFTFSSYAMSWVRQAPGKGLEWVSAISGSGTSTYYADSVKGRFTISRDNSKNTLYLQMNSLRAEDTAVYYCARVRYNWNHGDWFDPWGQGTLVTVSS
VL: QSVLTQPPSASGTPGQRVTISCSGSSSNIGNNYVSWYQQLPGTAPKLLIYENYNRPAGVPDRFSGSKSGTSASLAISGLRSEDEADYYCSSWDDSLNYWVFGGGTKLTVL
modifications: chelator conjugate with thorium-227
- tumor growth in xenograft models: inhibited tumor growth
